Experimental data reported in patent publication US20110135657A1 (published 2011).
Residue numbers refer to the chain shown, from its start. Names and notes keep the numbering of the source.

B1: 37D3 (antibody, human IgG2, kappa, V domains shown)
VH: EVHLVESGGGLAKPGGSLRLSCAASGFTFRNAWMSWVRQAPGKGLEWVGRIKSKTDGGTTDYAAPVKGRFTISRDDSKNTLYLQMNSLKTEDTAEYYCITDRVLSYYAMAVWGQGTTVTVSS
VL: DIVMTQSPLSLPVTPGEPASISCRSSQSLLHSNGYNFLDWYLQKPGQSPQLLIYLGSDRASGVPDRFSGSGSGTEFTLKISRVEAEDVGLYYCMQALQTPCSFGQGTKLEIKR
notes: fully human monoclonal antibody
B2: 17C3 (antibody, human IgG2, lambda, V domains shown)
VH: QVTLKESGPVLVKPTETLTLTCTVSGFSLSNARMGVSWIRQPPGKALEWLAHIFSNDEKSYSTSLKSRLTISKDTSKSQVVLTMTNMDPVDTATYYCARILLLGAYYYYGMDVWGQGTTVTVSS
VL: SYVLTQPPSVSVAPGQTARITCGGNNIGSQSVHWYQQKPGQAPVLVVYDDSDRPSGIPERFSGSNSGNTATLTISRVEAGDEADYYCQVWDSSSDHVVFGGGTKLTVLG
notes: fully human monoclonal antibody from XenoMouse hybridoma
B3: 46D11 (antibody, human IgG2, kappa, V domains shown)
VH: QVTLKEAGPVLVKPTETLTLTCTVSGFSLSNARMGVNWIRQPPGKALEWLAHIFSNDEKSYSTSLKSRLTISKDTSKSQVVLTMTNMDPVDTATYYCARVRIAGDYYYYYGMDVWGQGTTVTVSS
VL: DIQMTQSPSSVSASVGDRVTITCRASQGISIWLAWYQQKPGKAPKLLIYAASSLQSGVPSRFSGSGSGTDFTLTISSLQPEDFATYYCQQANDFPITFGQGTRLEIKR
notes: fully human monoclonal antibody; full chains H13/L13
B4: 18G1 (antibody, human IgG2, kappa, V domains shown)
VH: EVQLLESGGGLVQPGGSLRLSCAASRFTFSTYAMSWVRQAPGKGLEWVSGISGSGVSTHYADSVKGRFTISRDNSKNTLYLQMNSLRAEDTAVYYCAKSLIVVIVYALDHWGQGTLVTVSS
VL: EIVLTQSPGTLSLSPGERATLSCRASQNFDSSYLAWYQQKPGQAPRLLIYGTSSRATGIPDRFSGIGSGTDFTLTINRLEPEDFAMYYCQQYGGSPLTFGGGTEVEIKR
notes: fully human monoclonal antibody; full chains H5/L4
B5: 40D2 (antibody, human IgG2, kappa, V domains shown)
VH: QVQLQESGPGLVKPSQTLSLTCTVSGGSISSGGYNWSWIRQHPGKGLEWIGNIYYSGSTYYNPSLKSRVTISVDTSKNQFSLKLRSVTAADTAVYYCARENIVVIPAAIFAGWFDPWGQGTLVTVSS
VL: DFVMTQTPLSLSVTPGQPASISCKSSQSLLQSDGKTYLYWYLQKPGQPPHLLIYEVSNRFSGVPDRFSGSGSGTDFTLKISRVEAEDVGVYYCMQSIQLPRTFGQGTKVEIKR
notes: as for B1
B6: 16H7 (antibody, human IgG2, lambda, V domains shown)
VH: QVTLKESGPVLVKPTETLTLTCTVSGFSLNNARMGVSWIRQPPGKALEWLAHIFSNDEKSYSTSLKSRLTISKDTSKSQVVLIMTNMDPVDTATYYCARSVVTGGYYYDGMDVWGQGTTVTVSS
VL: B2 VL with Q30E, S92G, S93N
B7: 16H7 variant, heavy chain E16Q + V24F + I83T (antibody, human IgG2, lambda)
heavy: QVTLKESGPVLVKPTQTLTLTCTFSGFSLNNARMGVSWIRQPPGKALEWLAHIFSNDEKSYSTSLKSRLTISKDTSKSQVVLTMTNMDPVDTATYYCARSVVTGGYYYDGMDVWGQGTTVTVSSASTKGPSVFPLAPCSRSTSESTAALGCLVKDYFPEPVTVSWNSGALTSGVHTFPAVLQSSGLYSLSSVVTVPSSNFGTQTYTCNVDHKPSNTKVDKTVERKCCVECPPCPAPPVAGPSVFLFPPKPKDTLMISRTPEVTCVVVDVSHEDPEVQFNWYVDGVEVHNAKTKPREEQFNSTFRVVSVLTVVHQDWLNGKEYKCKVSNKGLPAPIEKTISKTKGQPREPQVYTLPPSREEMTKNQVSLTCLVKGFYPSDIAVEWESNGQPENNYKTTPPMLDSDGSFFLYSKLTVDKSRWQQGNVFSCSVMHEALHNHYTQKSLSLSPGK
light: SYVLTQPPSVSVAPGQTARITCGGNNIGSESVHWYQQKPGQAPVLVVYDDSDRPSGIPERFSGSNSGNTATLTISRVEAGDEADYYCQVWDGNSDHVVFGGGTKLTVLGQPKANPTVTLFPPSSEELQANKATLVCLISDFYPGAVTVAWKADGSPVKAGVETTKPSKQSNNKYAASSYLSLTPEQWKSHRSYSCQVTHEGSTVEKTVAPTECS
B8: 16H7 variant, heavy chain E16Q + V24F + I83T + T119L (antibody, human IgG2, lambda)
heavy: B7 heavy with T119L
light: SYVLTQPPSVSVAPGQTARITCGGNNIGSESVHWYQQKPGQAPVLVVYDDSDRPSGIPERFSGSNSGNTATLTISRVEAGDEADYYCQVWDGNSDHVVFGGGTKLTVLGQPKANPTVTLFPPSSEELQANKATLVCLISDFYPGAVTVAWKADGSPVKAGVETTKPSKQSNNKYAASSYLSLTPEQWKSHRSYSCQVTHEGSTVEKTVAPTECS
B9: 16H7 variant, heavy chain I83T (antibody, human IgG2, lambda, V domains shown)
VH: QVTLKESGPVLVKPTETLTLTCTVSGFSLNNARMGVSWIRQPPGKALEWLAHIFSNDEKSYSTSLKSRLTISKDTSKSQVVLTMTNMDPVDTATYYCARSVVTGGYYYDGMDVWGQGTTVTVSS
VL: B2 VL with Q30E, S92G, S93N
B10: 22H5 (antibody, human IgG2, lambda, V domains shown)
VH: B2 VH with L103V, Y109C
VL: B2 VL with S92N, S93T
notes: fully human monoclonal antibody; full chains H2/L2; also called 22H5 (WT)
B11: 16H7 variant, heavy chain Deletion of Y107 (antibody, human IgG2, lambda, V domains shown)
VH: QVTLKESGPVLVKPTETLTLTCTVSGFSLNNARMGVSWIRQPPGKALEWLAHIFSNDEKSYSTSLKSRLTISKDTSKSQVVLIMTNMDPVDTATYYCARSVVTGGYYDGMDVWGQGTTVTVSS
VL: B2 VL with Q30E, S92G, S93N
B12: 16H7 variant, heavy chain V24F (antibody, human IgG2, lambda, V domains shown)
VH: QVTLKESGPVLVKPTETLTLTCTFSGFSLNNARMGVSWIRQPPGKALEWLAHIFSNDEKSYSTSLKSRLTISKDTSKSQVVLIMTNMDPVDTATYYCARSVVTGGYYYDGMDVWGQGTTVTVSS
VL: B2 VL with Q30E, S92G, S93N
B13: 16H7 variant, heavy chain D88R + P89A + V90E + S100I (antibody, human IgG2, lambda, V domains shown)
VH: B2 VH with S30N, T83I, D88R, P89A, V90E, L101V, L102V, L103T, A105G, Y109D
VL: B2 VL with Q30E, S92G, S93N
B14: 16H7 variant, heavy chain I83K (antibody, human IgG2, lambda, V domains shown)
VH: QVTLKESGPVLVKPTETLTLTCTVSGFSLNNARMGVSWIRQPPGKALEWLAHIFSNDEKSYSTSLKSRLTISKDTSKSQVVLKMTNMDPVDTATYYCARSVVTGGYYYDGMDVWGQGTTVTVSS
VL: B2 VL with Q30E, S92G, S93N
B15: 16H7 variant, heavy chain E16Q + V24F + I83T + S100I + T119L (antibody, human IgG2, lambda, V domains shown)
VH: B2 VH with E16Q, V24F, S30N, L101V, L102V, L103T, A105G, Y109D, T119L
VL: B2 VL with Q30E, S92G, S93N
B16: 16H7 variant, heavy chain S100I (antibody, human IgG2, lambda, V domains shown)
VH: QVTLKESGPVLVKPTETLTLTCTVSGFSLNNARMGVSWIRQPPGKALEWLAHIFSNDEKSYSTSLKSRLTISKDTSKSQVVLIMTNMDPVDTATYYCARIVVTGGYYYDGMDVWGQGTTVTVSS
VL: B2 VL with Q30E, S92G, S93N
B17: 16H7 variant, light chain D49A + D91A (antibody, human IgG2, lambda, V domains shown)
VH: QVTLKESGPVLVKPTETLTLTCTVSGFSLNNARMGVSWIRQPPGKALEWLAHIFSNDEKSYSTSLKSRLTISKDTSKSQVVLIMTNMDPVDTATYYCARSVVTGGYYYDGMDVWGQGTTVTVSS
VL: B2 VL with Q30E, D49A, D91A, S92G, S93N
B18: 22H5 Heavy Chain, Insertion of Y107 (SEQ ID NO 405), as printed in Table 7 (antibody, human IgG2, lambda, V domains shown)
VH: B3 VH with A7S, S30N, N37S, T83I, V100S, R101V, I102V, A103T, D105G, Y110D
VL: B2 VL with S92N, S93T
B19: 16H7 variant, heavy chain D88R + P89A + V90E (antibody, human IgG2, lambda, V domains shown)
VH: QVTLKESGPVLVKPTETLTLTCTVSGFSLNNARMGVSWIRQPPGKALEWLAHIFSNDEKSYSTSLKSRLTISKDTSKSQVVLIMTNMRAEDTATYYCARSVVTGGYYYDGMDVWGQGTTVTVSS
VL: B2 VL with Q30E, S92G, S93N
B20: 16H7 variant, heavy chain D109S (antibody, human IgG2, lambda, V domains shown)
VH: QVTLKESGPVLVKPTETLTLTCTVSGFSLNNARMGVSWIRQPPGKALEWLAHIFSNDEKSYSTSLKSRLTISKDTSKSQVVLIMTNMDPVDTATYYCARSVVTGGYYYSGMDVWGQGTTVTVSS
VL: B2 VL with Q30E, S92G, S93N
B21: 22H5 variant, light chain N92Q (antibody, human IgG2, lambda, V domains shown)
VH: B2 VH with L103V, Y109C
VL: B2 VL with S92Q, S93T
notes: variant chain entry already carries the change; also called #7, P60897.3
B22: 22H5 variant, light chain S94A (antibody, human IgG2, lambda, V domains shown)
VH: B2 VH with L103V, Y109C
VL: B2 VL with S92N, S93T, S94A
notes: variant chain entry already carries the change; also called #6, P60898.3
B23: 16H7 variant, light chain D49Y (antibody, human IgG2, lambda, V domains shown)
VH: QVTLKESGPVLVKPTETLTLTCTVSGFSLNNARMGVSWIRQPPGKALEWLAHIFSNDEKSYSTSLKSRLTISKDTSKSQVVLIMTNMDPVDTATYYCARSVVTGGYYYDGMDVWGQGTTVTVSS
VL: B2 VL with Q30E, D49Y, S92G, S93N
B24: 22H5 variant, heavy chain C109S (antibody, human IgG2, lambda, V domains shown)
VH: B2 VH with L103V, Y109S
VL: B2 VL with S92N, S93T
notes: variant chain entry already carries the change; also called #23, P60899.2

molecular target: T1, soluble human β-Klotho (Biacore, Example 8) (human, UniProt Q86Z14 53-996, limits assumed); assay: Biacore competition binning; test antibody injected over soluble receptor captured on immobilized 24H11, 17D8 or 1A2.1
T1 construct: also called soluble β-Klotho
From the text: Soluble human FGFR1c/β-Klotho ECD-Fc complex or β-Klotho was then captured on the immobilized antibody surfaces.

Binder | binding result
B1 | binds
B2 | binds
B3 | binds
B4 | binds
B5 | binds

molecular target: T2, human FGF21 receptor (FGF21R): full length human FGFR1c and full length human β-Klotho co-expressed at the … (human, UniProt P11362 22-822; Q86Z14 53-1044); assay: cell-based or functional assay

Binder | Activity (%) = % of FGF21 activity, luciferase reporter, AM-1/D FGFR1c+β-Klotho Luc clone; antibody combined with isotype IgG2k control
B6 | 23.5 % of FGF21 activity

molecular target: T2, human FGF21 receptor (FGF21R): full …; assay: cell-based or functional assay; remark: another data set of the same source

Binder | EC50 (nM), Erk-phosphorylation, human adipocyte assay [nM]
B7 | 0.38
B8 | 0.36
B9 | 0.73
B10 | 2.27
B11 | 1.04
B12 | 0.75
B13 | 0.14
B14 | 0.39
B15 | 0.24
B16 | 0.17
B17 | 1.4
B18 | 0.51
B19 | 0.35
B20 | 0.31
B6 | 0.53
B21 | 3.33
B22 | 1.98
B23 | 0.6

molecular target: T3, His-tagged human recombinant β-Klotho (human, UniProt Q86Z14 53-997, limits assumed); assay: Biacore, 100 nM mAb over His-tagged human β-Klotho captured on anti-His antibody
T3 construct: also called β-Klotho captured on anti-His; human β-Klotho; not shown: His tag
Protocol: Briefly, mouse anti-His antibody (Qiagen, Valencia, Calif.) was immobilized on a CM5 chip using amine coupling reagents (General Electronics, Piscataway, N.J.). His-tagged human recombinant β-Klotho was captured on the second flow cell to ˜100RU. The first flow cell was used as a background control. 100 nM mAbs were diluted in PBS plus 0.1 mg/ml BSA, 0.005% P20 and injected over the β-Klotho captured on anti-His antibody surface. For kinetic measurement, 0.78-100 nM mAbs diluted in PBS plus 0.1 mg/ml BSA, 0.005% P20 were injected over the β-Klotho surface.

Binder | koff [s⁻¹]
B10 | 0.00031
B24 | 0.0003
B21 | 0.00052
B22 | 0.00035
